The source of these data is patent publication US20260115250A1 (CHARACTER BIOSCIENCES, published 2026).

Some results are limits rather than exact numbers.

The target in experiment [1] is T1, Low Density Lipoprotein Receptor (LDLR), recombinant (UniProt P01130 22-788, limits assumed).
T1 construct: also called Recombinant LDLR
Kind of experiment: SPR multi-cycle kinetics, immobilized LDLR, high surfactant preparation (HBS-P+), 1:1 model. The method, then:
The table shown in FIG. 23 illustrates LDLR binding data (SPR), using a high surfactant preparation. Recombinant LDLR was diluted in 10 mM acetate buffer pH 4.5 and amine coupled to a CM5 chip at 1000 RU. Peptides were diluted to 5 μM in running buffer (HBS-P+, 1 mM CaCl2) and serially diluted 1:3 for 5 total concentrations. […] Between cycles, the chip surface was regenerated with 3 injections of 50 mM NaOH/100 mM EDTA. Multi-Cycle Kinetics was performed on a Biacore Insight Evaluation Software and binding kinetics were analyzed with a 1:1 binding model.

The target of experiment [2] is T1, Low Density Lipoprotein Receptor …. Briefly: SPR multi-cycle kinetics, immobilized LDLR, low-surfactant preparation (HBS-P), peptide:DMPC complex against peptide alone. The method, then: Recombinant LDLR was diluted in 10 mM acetate buffer pH 4.5 and amine coupled to a CM5 chip at 1000 RU. Peptides were diluted to 5 μM in running buffer (HBS-P, 1 mM CaCl2) and serially diluted 1:3 for 5 total concentrations. In a separate preparation, peptides were diluted to 1 μM in running buffer containing 25 μM DMPC and serially diluted 1:3 for 5 total concentrations in running buffer. Peptide: DMPC complexes were incubated for 1 hour prior to use. […] Between cycles, the chip surface was regenerated with 3 injections of 50 mM NaOH/100 mM EDTA. Multi-Cycle Kinetics was performed on a Biacore Insight Evaluation Software and binding kinetics were analyzed with a 1:1 binding model.

The target of experiment [3] is ATP binding cassette subfamily A member 1 (ABCA1), endogenous in ARPE-19 cells (human, UniProt O95477 1-2261). Briefly: cell-based or functional assay.
ATP binding cassette subfamily A member 1 (ABCA1), endogenous in ARPE-19 cells, sequence (O95477 whole entry): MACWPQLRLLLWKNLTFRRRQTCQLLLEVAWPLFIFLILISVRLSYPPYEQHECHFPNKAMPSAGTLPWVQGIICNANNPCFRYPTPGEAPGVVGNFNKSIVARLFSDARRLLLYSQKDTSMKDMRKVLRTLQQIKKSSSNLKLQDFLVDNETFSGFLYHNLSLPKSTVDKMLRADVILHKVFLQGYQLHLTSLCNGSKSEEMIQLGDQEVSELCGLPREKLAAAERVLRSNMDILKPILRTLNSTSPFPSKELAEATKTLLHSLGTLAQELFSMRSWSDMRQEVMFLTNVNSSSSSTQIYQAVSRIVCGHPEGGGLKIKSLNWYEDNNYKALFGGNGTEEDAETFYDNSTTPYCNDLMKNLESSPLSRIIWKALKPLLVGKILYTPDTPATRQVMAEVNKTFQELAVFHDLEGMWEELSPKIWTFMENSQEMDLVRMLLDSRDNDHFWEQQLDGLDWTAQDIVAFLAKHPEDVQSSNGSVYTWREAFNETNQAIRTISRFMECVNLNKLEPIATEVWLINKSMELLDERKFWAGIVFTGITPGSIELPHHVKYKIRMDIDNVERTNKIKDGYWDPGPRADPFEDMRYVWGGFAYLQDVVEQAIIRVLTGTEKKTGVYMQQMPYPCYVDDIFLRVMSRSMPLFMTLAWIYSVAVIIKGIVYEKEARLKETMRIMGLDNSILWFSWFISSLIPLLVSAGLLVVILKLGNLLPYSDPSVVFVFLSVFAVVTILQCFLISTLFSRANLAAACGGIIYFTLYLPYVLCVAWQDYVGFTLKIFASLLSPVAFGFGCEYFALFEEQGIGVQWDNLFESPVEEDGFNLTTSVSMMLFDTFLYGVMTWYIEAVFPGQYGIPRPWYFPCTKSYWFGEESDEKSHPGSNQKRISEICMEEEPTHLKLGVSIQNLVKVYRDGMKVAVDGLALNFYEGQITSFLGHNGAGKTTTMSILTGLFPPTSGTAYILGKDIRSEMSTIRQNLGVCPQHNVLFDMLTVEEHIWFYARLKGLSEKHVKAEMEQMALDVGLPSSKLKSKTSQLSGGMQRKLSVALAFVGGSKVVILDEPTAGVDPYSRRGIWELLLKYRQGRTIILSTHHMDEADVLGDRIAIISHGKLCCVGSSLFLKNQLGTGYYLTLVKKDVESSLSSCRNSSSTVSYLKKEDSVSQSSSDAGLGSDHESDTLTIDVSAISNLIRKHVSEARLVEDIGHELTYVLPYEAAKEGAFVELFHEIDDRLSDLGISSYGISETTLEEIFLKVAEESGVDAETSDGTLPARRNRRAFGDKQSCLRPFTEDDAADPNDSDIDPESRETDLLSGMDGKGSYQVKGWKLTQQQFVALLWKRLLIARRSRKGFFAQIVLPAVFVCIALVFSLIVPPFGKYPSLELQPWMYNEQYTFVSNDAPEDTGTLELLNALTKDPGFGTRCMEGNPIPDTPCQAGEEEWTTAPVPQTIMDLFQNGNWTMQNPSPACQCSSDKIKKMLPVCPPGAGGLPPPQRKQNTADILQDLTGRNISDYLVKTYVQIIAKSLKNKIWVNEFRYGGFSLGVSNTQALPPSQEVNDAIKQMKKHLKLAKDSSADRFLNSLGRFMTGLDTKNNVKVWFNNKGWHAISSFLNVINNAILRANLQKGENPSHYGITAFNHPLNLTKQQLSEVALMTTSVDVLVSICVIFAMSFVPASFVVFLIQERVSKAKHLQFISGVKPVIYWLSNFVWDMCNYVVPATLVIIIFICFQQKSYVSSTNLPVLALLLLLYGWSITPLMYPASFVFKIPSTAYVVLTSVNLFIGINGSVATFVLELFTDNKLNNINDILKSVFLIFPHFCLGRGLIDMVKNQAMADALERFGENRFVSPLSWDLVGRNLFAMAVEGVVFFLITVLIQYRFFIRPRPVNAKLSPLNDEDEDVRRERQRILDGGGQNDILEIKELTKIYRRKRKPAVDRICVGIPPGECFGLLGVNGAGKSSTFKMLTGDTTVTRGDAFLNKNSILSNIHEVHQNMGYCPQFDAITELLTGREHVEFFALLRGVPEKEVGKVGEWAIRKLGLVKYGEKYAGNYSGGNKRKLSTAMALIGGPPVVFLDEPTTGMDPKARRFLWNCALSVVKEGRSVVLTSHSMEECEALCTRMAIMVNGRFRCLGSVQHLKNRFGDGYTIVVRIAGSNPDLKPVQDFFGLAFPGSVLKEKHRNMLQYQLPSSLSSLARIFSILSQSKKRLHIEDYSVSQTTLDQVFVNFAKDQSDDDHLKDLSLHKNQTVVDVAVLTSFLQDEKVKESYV
Experiment [4] addresses ABCA1, endogenous in J774 murine macrophage cells (murine, UniProt P41233 1-2261). Briefly: cell-based or functional assay.

ABCA1, endogenous in J774 murine macrophage cells, sequence (P41233 whole entry): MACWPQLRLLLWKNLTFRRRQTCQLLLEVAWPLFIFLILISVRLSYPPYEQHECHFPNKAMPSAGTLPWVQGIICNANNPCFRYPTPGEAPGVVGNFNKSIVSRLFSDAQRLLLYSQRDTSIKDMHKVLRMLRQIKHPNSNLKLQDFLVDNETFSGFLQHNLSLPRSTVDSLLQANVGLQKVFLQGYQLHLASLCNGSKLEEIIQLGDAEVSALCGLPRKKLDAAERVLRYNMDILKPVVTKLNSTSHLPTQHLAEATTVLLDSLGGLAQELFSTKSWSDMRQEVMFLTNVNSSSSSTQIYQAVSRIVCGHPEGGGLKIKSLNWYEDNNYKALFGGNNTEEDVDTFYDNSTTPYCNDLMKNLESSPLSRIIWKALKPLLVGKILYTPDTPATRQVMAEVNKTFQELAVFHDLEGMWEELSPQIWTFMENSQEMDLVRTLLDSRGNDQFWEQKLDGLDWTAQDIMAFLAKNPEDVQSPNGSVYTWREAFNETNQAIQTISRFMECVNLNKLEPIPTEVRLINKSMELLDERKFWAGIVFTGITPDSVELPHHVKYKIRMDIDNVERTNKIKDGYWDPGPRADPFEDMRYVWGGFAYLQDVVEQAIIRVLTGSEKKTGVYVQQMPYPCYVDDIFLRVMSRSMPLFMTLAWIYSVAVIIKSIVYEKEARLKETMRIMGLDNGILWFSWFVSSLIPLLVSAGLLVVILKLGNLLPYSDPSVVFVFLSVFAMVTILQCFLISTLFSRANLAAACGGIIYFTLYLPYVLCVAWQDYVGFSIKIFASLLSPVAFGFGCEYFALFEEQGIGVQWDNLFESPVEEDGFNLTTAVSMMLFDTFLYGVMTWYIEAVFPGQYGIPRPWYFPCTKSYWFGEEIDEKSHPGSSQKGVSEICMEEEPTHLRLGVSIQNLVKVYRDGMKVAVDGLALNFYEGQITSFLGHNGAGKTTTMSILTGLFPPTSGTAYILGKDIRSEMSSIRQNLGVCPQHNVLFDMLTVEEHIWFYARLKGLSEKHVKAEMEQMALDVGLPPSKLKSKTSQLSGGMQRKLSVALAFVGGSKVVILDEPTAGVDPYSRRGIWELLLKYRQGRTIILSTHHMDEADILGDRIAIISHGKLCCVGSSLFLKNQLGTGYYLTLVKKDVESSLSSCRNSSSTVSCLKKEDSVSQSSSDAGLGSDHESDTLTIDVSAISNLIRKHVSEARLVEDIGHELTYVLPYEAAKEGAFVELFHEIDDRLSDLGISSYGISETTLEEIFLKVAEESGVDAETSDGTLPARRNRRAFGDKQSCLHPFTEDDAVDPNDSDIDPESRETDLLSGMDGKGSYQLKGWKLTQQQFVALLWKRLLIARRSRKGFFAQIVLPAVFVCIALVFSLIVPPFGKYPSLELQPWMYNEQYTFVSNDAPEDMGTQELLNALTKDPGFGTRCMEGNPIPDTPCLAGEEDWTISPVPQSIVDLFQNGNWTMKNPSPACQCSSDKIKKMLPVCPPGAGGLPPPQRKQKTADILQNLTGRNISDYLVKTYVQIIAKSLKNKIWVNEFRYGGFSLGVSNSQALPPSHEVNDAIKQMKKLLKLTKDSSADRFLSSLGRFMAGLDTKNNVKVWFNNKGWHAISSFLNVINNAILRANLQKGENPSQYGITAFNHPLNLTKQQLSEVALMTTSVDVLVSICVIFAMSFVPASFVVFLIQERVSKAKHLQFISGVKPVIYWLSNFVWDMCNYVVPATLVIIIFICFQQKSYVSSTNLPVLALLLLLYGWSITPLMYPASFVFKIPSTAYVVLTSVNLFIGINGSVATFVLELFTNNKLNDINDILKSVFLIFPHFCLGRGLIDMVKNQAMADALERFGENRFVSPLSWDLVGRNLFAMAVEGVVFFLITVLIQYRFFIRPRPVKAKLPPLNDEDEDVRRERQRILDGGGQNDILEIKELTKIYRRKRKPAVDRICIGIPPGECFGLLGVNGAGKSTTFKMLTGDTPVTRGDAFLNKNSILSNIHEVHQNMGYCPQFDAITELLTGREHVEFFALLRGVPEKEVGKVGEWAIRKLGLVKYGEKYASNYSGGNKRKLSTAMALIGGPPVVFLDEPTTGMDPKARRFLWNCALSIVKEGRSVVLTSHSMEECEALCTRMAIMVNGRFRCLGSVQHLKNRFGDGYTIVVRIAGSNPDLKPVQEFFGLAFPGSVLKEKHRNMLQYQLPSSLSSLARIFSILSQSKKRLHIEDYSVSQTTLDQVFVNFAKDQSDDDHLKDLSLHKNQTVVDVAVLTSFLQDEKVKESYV

Usually Kd stands for a measure of binding affinity in units of concentration. Consider LASHLRKLRKRLLRDADDLQKRLAVYQAGAREGAER [T-046], for which, in experiment [1], the Kd was below 10 µM.
Same read-out and setting: to LARHLRKLRKRLARDADDLQKRLAVYQAGAREGAER [T-047] belongs below 10 µM.
Consider LVQYRGEVQAMLGQSTEELRVRLASHLRKLRKRLLRDADDLQKRLAVYQA [T-070], for which the “change in LDLR binding in the presence of DMPC lipid” value (from here on “change in LDLR binding”) in experiment [2] is above 2 fold.

B1: T-069 (peptide)
peptide: VRGRLVQYRGEVQAMLGQSTEELRVRLASHLRKLRKRLLRDADDLQKRLAVYQA
Regarding B1, in experiment [1], the Kd is below 10 µM.
As for RSGADALESALKELKRFIREWT [T-101], in experiment [3], the “EC50, membrane ABCA1 stability in ARPE-19 cells treated with mCRP (western blot)” value is 3.5 µM. Further, the “EC50, membrane ABCA1 stability in J774 cells (western blot of membrane ABCA1 after 8-Br-cAMP washout)” value in experiment [4] worked out at 3.7 µM.

B2: T-115 (peptide)
peptide: DHINKVQRKVTHEIERLFLGQSTEELRVRLASHLRKLRKRLLRDADDLQKRLAVYQA
As for B2, the “change in LDLR binding” value in experiment [2] is above 2 fold. For the same molecule, in experiment [1], the Kd was below 10 µM.
The like results for LASHLRKLRKRLLRSLVSQYFQTVTDYGKDLM [T-065] were, in that order, above 2 fold and below 10 µM.
The like results for LARHLRKLRKRLARSLVSQYFQTVTDYGKDLM [T-066] were, in that order, above 2 fold and below 10 µM.
Regarding HLRKLRKRLLRDGDKLQDRLAEYQARAKEAFDR [T-040], the Kd in experiment [1] was below 10 µM.
Still for that read-out and setting: for HLRKLRKRLLRDGDKLQKRLAEYQARAKEAFDR [T-052] the value was below 10 µM.
With HLRKLVKRLFRDGDKLQDRLAEYQARAKEAFDR [T-059], the Kd in experiment [1] was below 10 µM.
In the case of HLRRLRRRLLRDGDKLQDRLAEYQARAKEAFDR [T-041], the Kd in experiment [1] is below 10 µM.
Consider HLRKLRKRLLRDGDKLYDRLAEYYARAKEAFDR [T-062], for which the dissociation constant Kd in experiment [1] was below 10 µM.
Still for that read-out and setting: for HLRKLRKRLLRDADDLQKRLAEYQARAKEAFDR [T-064] the value was below 10 µM; for HLRKLRKRLLRDGDKLQDRLAEYQARAREAFDR [T-055], below 10 µM.

B3: T-068 (peptide)
peptide: MEDVRGRLVQYRGEVQAMLGQSTEELRVRLASHLRKLRKRLLRDADDLQKRLAVYQA
Take B3: the “change in LDLR binding” value in experiment [2] was above 2 fold. For the same molecule, in experiment [1], the Kd was below 10 µM.
With LASHLRKLRKRLLRDGDKLQDRLAEYQARAKEAFDR [T-048], the Kd in experiment [1] is below 10 µM.
The same measure, in the same setting: to LARHLRKLRKRLARDGDKLQDRLAEYQARAKEAFDR [T-049] belongs below 10 µM.

B4: T-116 (peptide)
peptide: DAWERFRALFKELADYFRLGQSTEELRVRLASHLRKLRKRLLRDADDLQKRLAVYQA
For B4, in experiment [2], the “change in LDLR binding” value was above 2 fold. In addition, the Kd in experiment [1] is below 10 µM.

B5: T-113 (peptide)
peptide: WKDFGERVERALREQFEDLGQSTEELRVRLASHLRKLRKRLLRDADDLQKRLAVYQA
On to B5, for which the “change in LDLR binding” value in experiment [2] is above 2 fold. Also, the Kd in experiment [1] is below 10 µM.

B6: T-114 (peptide)
peptide: LKDFGERVARALREQFEDLGQSTEELRVRLASHLRKLRKRLLRDADDLQKRLAVYQA
On to B6, for which the “change in LDLR binding” value in experiment [2] is above 2 fold. Besides, in experiment [1], the Kd is below 10 µM.

B7: T-112 (peptide)
peptide: YKDFGERVERALGRQLEMLGQSTEELRVRLASHLRKLRKRLLRDADDLQKRLAVYQA
As to B7, the “change in LDLR binding” value in experiment [2] was above 2 fold. In addition, the Kd in experiment [1] was below 10 µM.

B8: T-117 (peptide)
peptide: RSGADALESALKELKRFIREWTLGQSTEELRVRLASHLRKLRKRLLRDADDLQKRLAVYQA
On to B8, for which the “change in LDLR binding” value in experiment [2] was above 2 fold.
For DAWERFRALFKELADYFR [T-087], the “EC50, membrane ABCA1 stability in ARPE-19 cells treated with mCRP (western blot)” value in experiment [3] came to 4.6 µM. Moreover, the “EC50, membrane ABCA1 stability in J774 cells (western blot of membrane ABCA1 after 8-Br-cAMP washout)” value in experiment [4] came out at 1.51 µM.
HLRKLRKRLLRSLVSQYRQTVTDYGKDL [T-110]: the “change in LDLR binding” value in experiment [2] is above 2 fold. For the same molecule, the Kd in experiment [1] is below 10 µM.
As for HLRKLRKRLLRSLVSQYFQTVTDYGKDL [T-109], the “change in LDLR binding” value in experiment [2] is above 2 fold. The Kd in experiment [1] is below 10 µM.
For the molecule HLRKLVKRLLRSLVSQYRQTVTDYGEDL [T-111], in experiment [2], the “change in LDLR binding” value is above 2 fold. In addition, the Kd in experiment [1] is below 10 µM.
